For 4 substances, stoichiometry N results are on record in paper PMC10790770.

Assay in all cases: cross-linking; cysteine cross-linking with CuCl2 in E. coli co-producing the T2SS lacking pulF (pCHAP8252) and PulF or PulFΔN Cys variants (pCHAP8259 derivatives); total extracts on 4%–15% SDS gradient gels, blot with anti-PulFC
In experiment [1] the target is PulFΔN^Y168C-E370C (K. oxytoca) (UniProt P15745).
The target in experiment [2] is PulF^V171C-P371C (K. oxytoca) (UniProt P15745).
The target of experiment [3] is PulF^Y168C-E370C (K. oxytoca) (UniProt P15745).
Experiment [4] has as its target PulFΔN^V171C-P371C (K. oxytoca) (UniProt P15745).

For “PulFΔN^Y168C-E370C (from UniProt P15745 35-381) (domain or fragment)”, the stoichiometry N in experiment [1] is 3. For “PulF^V171C-P371C (from UniProt P15745 1-381) (natural protein)”, the stoichiometry N in experiment [2] was 3. “PulF^Y168C-E370C (from UniProt P15745 1-381) (natural protein)” gave a stoichiometry N in experiment [3] of 3.

Consider “PulFΔN^V171C-P371C (from UniProt P15745 35-381) (domain or fragment)”, for which the stoichiometry N in experiment [4] is 3.

Broadly, the stoichiometry N is the number of molecules, sites or subunits per partner or assembly.
